Assay results: the DeepSol protein solubility set

assay: soluble on expression in E. coli; label from the status in PepcDB or PDB records

Row | Sequence | soluble on expression in E. coli
1 | MGSDKIHHHHHHMGLYDLLDAEGKDDQKGKSPGVAVGVVADNQDPEGMGRVKVRFPWKDDADESTWARVVTPMAGKGRGLWFLPEVGDEVLVAFDHGDVQHPYVLGSLWNGTDTPPGDNGDGNNNIRKITSRSGHELVFDDTSGAEKVVIRTKAGHAITLDDAGGGEKIEIKDKSGSNKLVIDSAQNSIGIESSMKLTIKGQMVEIQSDANMTLKAGAVMTIQGSMVKIN | not soluble
2 | MGSDKIHHHHHHMGMSSDLIKPRRPSTSGCAIHCHDCSMEALCIPFTLNNDELDKLDSIIERKKPIQKGDLIFKSGDVLKSLYAIRSGTIKSYTITEQGDEQITGFHLAGDVIGFDGIHAQRHQSFAQALETSMVCEIPYDTLDDLSGSMPKLRQQIMRLMSNEIMSDQEMILLLSKKNAEERLAAFINNLANRFGNRGFSPHEFRLTMTRGDIGNYLGLTVETISRLLGRFQKSGLIEVKGKYISIIDHSALSTLAGNARIAT | not soluble
3 | MGSDKIHHHHHHMGNATRIYEKHVDIKKDTVQDFWNKRAKKHIPENPYISVKCNDQNPDYAKNLDKYEKEIIIPKLNITRNSNILDIGCGVGRLADDIVPICNYYLGTDFAEDLISIAKKRFSDNDCDFQVCDFINTLYDTKVKSKMPFDTILLAGVTMYINDDELKIALKNLLGILDKKATIYISIPIGINKRLTLKEFYSKELNSEYNVIYRTIEEYEEILKPLLDEGFEIVESKSFLTDINQYSDTERHYFILKR | not soluble
4 | MGSDKIHHHHHHMGNFHTMLDALLEDQEEAVLATIVQVEGSAYRKAGASMLFKKKGRRIGLLSGGCVEEDVFQRISALGDQLTSTLIPYDMRSEDDLSWGMGAGCNGIIHVHAERITQEKRRHYEKVRDCLHSGKAVTSVIKIESSHYLFLTENGHFGNWPDAPLQDIQRTVSTLHLPHFDQTTNMFIQRIEPKPRLILFGAGPDNVPLANLAADTGFSVIVTDWRPAYCTSSLFPYAYYLITAFPEQMLSEFQFFPHDAAVVATHHYQHDQTIINFLFSQNLHYIGLLGSANRTKRLLSGKHPPSHFYSPVGLKIGAEGPEEIAVSVVAEIIQTRKRVAVV | not soluble
5 | MGSDKIHHHHHHMGNKPSGRHYFAEGITNRGYISLLPNMMSEWERTYVLMGGPGTGKSTTIKMIGLDLLDRGYEVDFLRSARDPDSMAGVLIRRFNWAILDHYEIAPLHWRAPGVIEHFVDFSKYCNQGKLEQQRLRVLELGEKIKRGQQRIGEILAEEFGGRIRERFYAKADEGRPWLPKLYASDLFKEAKGPWSKAQDALKKIQKSAVQSFFLHGINPEGWLNLAPYFLTDYDQIRFDGEEAHEAMEWVLQEAEQLGQVIDIVLHPLYPDEILGIVFPERNLAIWQGDPEHLEDQGLGCPFSNDLKKALLDTQRLRDKLKAIYTKTVDFDQVDSMKTDLLSSILRDMDKKVHTID | not soluble
6 | MGSDKIHHHHHHMGNPRAFLTIHRQEAGYRPVHERIDDFSEVEQTLNSGDRRTQASRCMDCGVPFCHWACPLGNKQPEWQDLLYKGRYKEAYHVLEQTDDFPEFTGRVCPALCEKSCVLKLSCDEPVTIRENEAAIVEAAFREGYVQPIQPVRNGKKVAVIGSGPAGLTVANQLNRKGYEVTVFEKDELPGGLLRFGIPNFKLGKHIIDRRIRIMEQEGILFRVNTMVGKEILAKDVVKDFDAVCVAIGAEVPRDLSIEGRHLRGVHFALELLSQQNRILEGIPIPPKSQINCKGKKVLVIGGGDTGSDCVGTANRHGAACVTQIEIMPQPPVGQNPATPWPMYPQVLKTSSSHEEGCIRRWNLASNRFIGEKNNLIGVEVEEVEWVPSPDGGRPQMRQTGKKEIIEADLVFLAMGFLHPVQEGLIKELRLATDNRNNIAVDNAGYTANSNLFACGDAVSGASLVVKAMASGRNVARSIDRFLQTN | not soluble
7 | MGSDKIHHHHHHMGSFALPANAQCEAKNDAFQSGEHVMYDLYFNWKFVWVKAGIASLTTNATTYHSEPAYRINLLALGSKRADFFFKMRDTLTCVMGEKLEPRYFRKGAEEGKRYTVDEAWFSYKDGLCFAKQKRTFRDGEVQESEESDSRCIYDMLTILAQARSYDPADYKVGDKIKFPMATGRKVEEQTLIYRGKENVKAENGVTYRCLIFSLVEYDKKGKEKEVITFFVTDDKNHLPVRLDMFLNFGSAKAFLNDVRGHRHPLTSIVK | not soluble
8 | MGSDKIHHHHHHMGSQLFVRNGRKMQLTESGKKLYIATHKAFDTLLKGFNSIQTEDVAGTLTITSTQAFTSLWLMPRLYKFSIKHPEIKVKVVSSNGLEDLRRGHIDLAIRFITNKEVDTSDDMTYEFIAEDHVYPACSPQLMKEYNFKEPQDVLKCWLVSLENQGSIDWRTWFKEAGVENYQCHKKWTEVSSGDMALSAVLSGHGFTLASQALFSQYVITGQLVIPFNIKHPISFKRYFVFDPNSAKKERVNVFTTWLKEETLQDEKSTLEAISYGSL | not soluble
9 | MGSDKIHHHHHHMHDKFLNYFDETARQGSIRKAAAVLNMSSSSLNRKIISTENRLGIRLFDRHADGVTLTEAGVVVLEHCRNTLFDYQRIVNMVEDIRDMRTGHIDILTLDSIALSVLPEVLDDFQDAYPQVAYTIQTDEPHAVMQAVANGTADIGLSFSNDLHPDVRCQAEKSTPIGAIMAHDHPLAERDLIEVGDLAPYQLIRSYDSQTHRSFVNEAVSSLGVQLSTQMVTNSLPLAKTMILNGRGVGIYSKIGFIEEIEDGRLRYVAINSPLLRELRIGVLISARTGLLPVQHLLARALSKSLRSLRLDS | not soluble
10 | MGSDKIHHHHHHMHPNIATLLSANLGESRTRHLLSLVSVPDGLPSDAEGRATRAEIAQALNMVLFAGILDRVPTGRAYTDDVAATGGKVVFDHGALRTVKWRDNGALPEGEAAFTRILRPLGYRLNGNYPLDRISMTGRSYAHADAPEGIAQFFVSEFHPERFSDAFREAVGRVTGNSADPLTPRAQTLLWQLDRDGVLTVADGAELIGLLVPCFERQHGVPRLADYETLLRESAEMAWIATEGNAFNHATDRVDDVFGLSEQQKALGRPMKDKVEVSGSGRVKQTAFRADTVRRQFIGAQGETVERDVPGSFYEFITRDRFADAPAASPRVDLGFDAGNAQGIFKMTAAV | not soluble
11 | MGSDKIHHHHHHMHVFNYGRSYLERGDARPIYLPELPLVRGALLPQAPLDMAGALRDAAPDAWGRRVIINRLMGLKGVGAHAVEFDELTYLLHSGSDRIGALDFQTSPDRYRPREAENATLEELLEAAERVDRGEPIPPALDKALFHGSSIGGARPKALIEDGQEKFIAKFSATNDTYAIVKAEYVAMRLAKEAAGLTVAAVRLVKANGKDVLLVKRFDRERTGAGWTRRAMVSALTLLGLSEMQARYASYHDLTDIIRARFTEPRDSLRELYGRMVFNVLSGNTDDHARNHAAFWNGESLALTPAYDLCPQQRTGREANQAMLIGQEDRRSRLETCRLAASAFLLNDVEARALIHAQIDAIGAAWDGICDEADLSKIDRAFLWRRQFLNDYAFEGFGR | not soluble
12 | MGSDKIHHHHHHMHVKRAATAGFCMGVGLALKKLDRELDNNAKDIATLGPIIHNPQVLRRYEQKGVRCYTDPAEARSGQRVVIRAHGIPEETESALAAAGVDLVDATCPKVKRAQLGIARQREKGRTLLLFGEHDHPEVQGLLSYAGEGAVVFGSLEELQNGPLEDDRHYFLAAQTTQDKHAFTSVIEWVRRRFGDHVPVLDTICDATRERQDEAIAIARSVDVMVVVGGFASGNTRRLAEVAQAQGVPTYHVETPDQLPLDAIRGYGAAGLTAGASTPKSIIDETQKLLESL | not soluble
13 | MGSDKIHHHHHHMHVSLDTMVDTLKAAAESSRLRILALLSRGDLTVSDLTEILGQSQPRVSRHLKLLLEAGLIDRYQEGSWAFFRLSDADSARDFVMGLVSSIRGADPQVERDLERLASVKRKRQDRAAEYFSVNAASWDHIRSLHVPDRAVEAAMLKLVGKRPFQSMLDLGTGTGRLLEIFSPLYRRGVGIDMSREMLTVARANLDKAGVSNAQVRQGDIFSPPVERDAFDLVTIHQVLHYLDDPARAIHEAARLLRPSGRLVIVDFAPHTLEFLREEHAHMRLGFSDRQIGEWFAEAGLDLEDAQEFEPRGGSEPRLTVKLWLGRDRRLLIADPANDSQQTKVNSIGEIA | not soluble
14 | MGSDKIHHHHHHMHYPPMIATTLPDGPEQTPLTAEIVLRYHLCWKHRDLDGVMALYHPDIQYHDFFQNRVLGHQELRDYVRACLPHEAGEDIVHSDRIRVDGSTAFIQYQVTVQGGDGLVAFQSSEAITVRDGLIWRVNEYATLVRQNGTGHANSGPRPATSRLGLSPRQLSTMAQDLEHYFRRQRPYLDPELDLQQVADASGYSRNQISYLLNQVLGQSFYRYVNQARLQHLMASLGDDSVEATIDELAFSAGFNSLSAFYKCFREHTGFTPKAYLKQISLRART | not soluble
15 | MGSDKIHHHHHHMHYQFFATCPRGLEPLLEDELNSIRARQIKPTDGGVGFAGDMLLCYRANLESRIATRILLQVGKGRYSNEDELYQGAYKIDWVQWFEVEQDFMVKVTGVRCPLKSLEFATLRIKDAICDRFREEVGSRPSIDTREPDVRVHAYLGAEEYQLYVDTSGNALYQRGLRRASIEAPLRENLAAGILKLSGWQPGTPLLDPMCGSGTFLLEAAMISLDIAPGSNRSFGFERLKNFNAGAWQSLLKQAKSRAKPVAFQGIYGSDADLRAVRITRKNLEQAGLLDAMQVAHREFTDVVPPAAEGILVANPPYGVRIGEDEELAALYPKMGEALKKKFAGWNAYFLTNDMRLPKLMRLSPTKRTPLFNGPLECRVFEIKMVAGSNRKEKSND | not soluble
16 | MGSDKIHHHHHHMIDEIKSGKYKHGDKLPTEKELMERFNASRETVRKALERLVVKNLVIRKPGLGTFVNIEKKNKVVGILVQQITSYIFPYIALGAEEVLFANGYKMLLGNASEDPHKERQIINEWLEVGVDGLIIDPVYSATKRSNRDLIEDMAKKGTKVVLVHTNWDIEGVGSVVLDDWYGGEKAAEIFYQYGHRNVAVLYKTIHLPSVVRAQAFLKRGRELGFEKVHEKSFHVSEFTGIVMQSAFELLSLPKDQRPTAVFCYNDATALQFFLAAKRMGLKIPEDVSVIGFDDAPIGDFREILTTFEHPKEEVGKKAVEILLKMIDGEKPEKYVFKPKLIMRESVTYPKK | not soluble
17 | MGSDKIHHHHHHMIDSMTHRKLSKTAQPLSPTRPWHSTKATCYSAMLSTWSLSQKRLSISALILAITSTATWANEVKNQDIQAASKSNTCYVEGVSDRLNCGFVTVPENPNKPDGKQIQVHYVVLPAVKNANHEEALLAIAGGPGQSAIDNAAGFDAMLSKVRQQRDILLIDQRGTGRSNLLTCDESANPLSLDDDSIDPSAETQKCLDKIDADVSQYGSLNAVKDFEAVRAHLGYKKLHIYGISYGTRMAQLYMRLYPEQLATVTLDGVVPMQQSVLEIGSAIDRGFELLFKDCQENTVCKQQFPQLKAEFEQVANTLAKGAITENVFDPVTGEKNQLIITRGKFYGAIRMALYQTNVRALVPHAIHQAANNHFQPLLGLYALTVDNAGIAMGMHTSVVCGEDIHRITPAMREKAASSYVGQTMLDSMEKTCAIWKVPAVDNSFSEPISSNIPTLLLSGEIDPATPPSWGELAMEKLTNAKHFIAPYATHGVAYQSCANGLVADLVRTGSINDLDGECLNKDVRRSFYLNASSVEPLNATSTKTTTTNNNASTGAKE | not soluble
18 | MGSDKIHHHHHHMIEPVSEDTILITLAPAIDDTLPARIASLVDSIRRAGFHWLVDMVPSYTTLMVVYDPVLVDFRQVTDKLRPIVHRLSTQGHTAELKSRLVELPVYYSAETGPDLQWLATESGLDCEEVIRRHSSVEYRVHALGFAPGFAFMGQVDPSIAAPRKTTPRKQVPAGSVGIANRQTAVYPQVSPGGWQLIGRCPTRLFDSTNLSLLKVGDRVRFTPISREAFLAAGGELIS | not soluble
19 | MGSDKIHHHHHHMIGEKIISFESIDSTNRFLKENYRFYPDGTVVVALEQTSGYGRSGRHWHSPKGGLWFSVLFKPRKPLELSFYTRVFSVAVVKTLENMKIHANIKWPNDVYINGRKLAGVLSEGIFEGAKPLAVVVGVGMNVNNEIPAELKTRAISLKEIMGKEISIVKLMESMLKNARVIFRKYSRKKEALTRIWKRYLLQKEGDLISLEGKKGKIVKINPDSLLIDFDGEIKKVYSLSPH | not soluble
